From article PMC9184547, “Distinct dissociation rates of murine and human norovirus P-domain dimers suggest a role of dimer stability in virus-host interactions” (Communications Biology, 2022)

Experiments:
[1] = biological target: GII.4 Saga P-domain (native, non-deamidated) (human norovirus GII.4 Saga); experiment: native MS; 150 mM ammonium acetate pH 7.3, purified GII.4 Saga P-domain, 25 C, also at low protein concentration
[2] = biological target: T1, MNV CW1 P-domain (MNV-1 P-dimer) (Murine norovirus 1, UniProt Q80J94); experiment: methyl TROSY NMR titration, TITAN global lineshape analysis; format: binding
T1 construct: gene ORF2; MBP-His8 fusion from E. coli BL21(DE3), cleaved with HRV3C; MIL(proS)V(proS)A 13C-methyl labelled for NMR

[3] = biological target: T1, MNV CW1 P-domain (MNV-1 P-dimer); experiment: differential scanning fluorimetry (SYPRO orange); format: binding; settings: pH 5.3, 20 mM sodium acetate, 100 mM NaCl; 3 µM protein; stabilisation rises with ligand concentration
[4] = biological target: GII.4 Saga P-domain deamidated at position 373 (iso-aspartate, iD) (human norovirus GII.4 Saga); experiment: ion-exchange chromatography of exchanging dimers; 373iD/iD and 373Q/Q dimers mixed 1:1, total 1.24 mg/ml, 75 mM sodium phosphate, 100 M NaCl (so in the source), 0.02% NaN3, pH 7.3, 298 K; aliquots over 38 days on analytical cation exchange chromatography; fraction of mixed dimers fitted to an exponential; dimer to monomers
[5] = biological target: the molecule itself; experiment: SEC-MALS; Superdex 75 10/300 GL, 10-200 uM protein, 20 mM sodium acetate, 100 mM NaCl, pH 5.3
[6] = biological target: the molecule itself; experiment: native MS; 150 mM ammonium acetate pH 5.3, 2-92 uM purified P-domain, 25 C; relative dimer peak area against total protein fitted; dimer to monomers
[7] = biological target: the molecule itself; experiment: NMR titration; 1H,15N TROSY HSQC spectra of [U-2H,15N] labeled P-domain at 24-200 uM protein; intensities of unassigned dimer cross-peaks; 298 K, 20 mM sodium acetate, 100 mM NaCl, pH* 5.3; dimer to monomers
[8] = biological target: the molecule itself; experiment: SEC; analytical Superdex 75 Increase 3.2/300, 20 mM sodium acetate, 100 mM NaCl, pH 5.3, 278 K; 250 nM-270 uM protein; apparent molecular weight against feed concentration fitted, apparent KD; lower limit from the 10x dilution; dimer to monomers
[9] = biological target: the molecule itself; experiment: NMR titration; methyl TROSY (1H,13C HMQC) spectra of MILproSVproSA labeled apo P-domain at six concentrations 12.5-226 uM; global two-dimensional lineshape analysis with TITAN (dimerization model); 298 K, 20 mM sodium acetate-d3, 100 mM NaCl, pH* 5.26 in D2O; dimer to monomers

Molecule: GII.4 Saga P-domain (native, non-deamidated) (domain or fragment)
- stoichiometry N [1]: 2

Molecule: C[C@H](CCC(=O)NCC(=O)O)[C@H]1CC[C@H]2[C@@H]3[C@H](O)C[C@@H]4C[C@H](O)CC[C@]4(C)[C@H]3CC[C@]12C [GCDCA, glycochenodeoxycholic acid]
- Kd [2]: 10.5 ± 0.5 µM
- TM [3]: thermostability of CW1 P-domains improves considerably with increasing GCDCA concentrations

Molecule: GII.4 Saga P-domain point mutant N373Q (domain or fragment)
- dimer half-life time [4]: 5.3 days
- koff [4]: 1.51e-06 s⁻¹

B1: MNV-1 (CW1) P-domain (domain or fragment)
chain: TIYRMVDLPVIQPRLCTHARWPAPVYGLLVDPSLPSNPQWQNGRVHVDGTLLGTTPISGSWVSCFAAEAAYKFQSGTGEVATFTLIEQDGSAYVPGDRAAPLGYPDFSGQLEIEVQTETTKTGDKLKVTTFEMILGPTTNADQAPYQGRVFASVTAAASLDLVDGRVRAVPRSIYGFQDTIPEYNDGLLVPLAPPIGPFLPGEVLLRFRTYMRQIDTADAAAEAIDCALPQEFVSWFASNAFTVQSEALLLRYRNTLTGQLLFECKLYNEGYIALSYSGSGPLTFPTDGIFEVVSWVPRLYQLASVGSLATGRMLKQ
notes: Protruding (P)-domain of the major capsid protein VP1 of murine norovirus MNV-1 (CW1); construct truncated at the C-terminus compared to prior work; Monomer-dimer equilibrium in solution; Used unlabeled, [U-2H,15N] labeled or 13C-methyl (MILproSVproSA) labeled; also called MNV CW1 P-domain; MNV.CW1 P-domain; source: E. coli BL21 DE3, purified (Ni-NTA, HRV3C cleavage, Ni-NTA, SEC at pH 5.3)
- stoichiometry N [5]: 2
- Kd [6]: 32 µM
- Kd [7]: ~31 µM
- Kd [8]: 4 to 40 µM
- Kd [9]: 6.9 µM
- koff [9]: 1.25 s⁻¹
- kon [9]: 140000 M⁻¹ s⁻¹
